Values quoted from earlier work in PMC5501900.

Target: Vinculin tail tail (Homo sapiens) (UniProt P18206)

Kd: < 1 nM
Substance: Vinculin head head (from UniProt P18206)
